Measured values: patent US20150125449A1 (published 2015)

B1: OA2-Fab-Her2 (antibody)
chain 1: not shown
chain 2: not shown
chain 3: EPKSSDKTHTCPPCPAPELLGGPSVFLFPPKPKDTLMISRTPEVTCVVVDVSHEDPEVKFNWYVDGVEVHNAKTKPREEQYNSTYRVVSVLTVLHQDWLNGKEYKCKVSNKALPAPIEKTISKAKGQPREPQVYVYPPSRDELTKNQVSLTCLVKGFYPSDIAVEWESNGQPENNYKTTPPVLDSDGSFALVSKLTVDKSRWQQGNVFSCSVMHEALHNHYTQKSLSLSPGK
B2: OA4-scFv-BID2 (antibody)
chain 1: QVQLVQSGAEVKKPGESLKISCKGSGYSFTSYWIAWVRQMPGKGLEYMGLIYPGDSDTKYSPSFQGQVTISVDKSVSTAYLQWSSLKPSDSAVYFCARHDVGYCTDRTCAKWPEWLGVWGQGTLVTVSSGGGGSSGGGSGGGGSQSVLTQPPSVSAAPGQKVTISCSGSSSNIGNNYVSWYQQLPGTAPKLLIYDHTNRPAGVPDRFSGSKSGTSASLAISGFRSEDEADYYCASWDYTLSGWVFGGGTKLTVLGAAEPKSSDKTHTCPPCPAPELLGGPSVFLFPPKPKDTLMISRTPEVTCVVVDVSHEDPEVKFNWYVDGVEVHNAKTKPREEQYNSTYRVVSVLTVLHQDWLNGKEYKCKVSNKALPAPIEKTISKAKGQPREPQVYTYPPSRDELTKNQVSLTCLVKGFYPSDIAVEWESNGQPENNYKTTPPVLDSDGSFALVSKLTVDKSRWQQGNVFSCSVMHEALHNHYTQKSLSLSPGK
chain 2: not shown

Tests used:
[1] = biological target: T1, Her2 on the surface of Her2-expressing cell lines (human, UniProt P04626 23-1255); experiment: flow cytometry, SKBR3 cells
T1 construct: whole, on cells; The cell line of each value is named under assay; also called ErbB2; Her2 receptor

[2] = biological target: T1, Her2 on the surface of Her2-expressing …; experiment: flow cytometry, MDA-MB-231 cells
Recombinant human HER2 = Recombinant human HER2 (human, UniProt P04626 23-652); experiment: SPR, antibody captured on anti-human IgG, recombinant human HER2 as analyte, 1:1 Langmuir; average, n 4
[3] = biological target: T1, Her2 on the surface of Her2-expressing …; experiment: flow cytometry, SKOV3 cells
[4] = biological target: T1, Her2 on the surface of Her2-expressing …; experiment: flow cytometry, SKOV3 cells; remark: listed apart in the source

| Binder | Bmax [1] | Kd [1] [nM] | Bmax [2] | Kd [2] [nM] | Kd (Recombinant human HER2) [nM] | koff (Recombinant human HER2) [s⁻¹] | kon (Recombinant human HER2) [M⁻¹ s⁻¹] | Bmax [3] | Kd [3] [nM] | Bmax [4] |
| --- | --- | --- | --- | --- | --- | --- | --- | --- | --- | --- |
| B1 | 64800 | 10.8 | 412 | 9.97 | 0.435 | 0.000131 | 313000 | 7070 | 4.72 |  |
| B2 |  |  |  |  |  |  |  |  |  | 7950 |
